Laboratory results as given in patent publication US5726024.

Experiments:
p53 (wild type) = p53 (wild type) (UniProt P02340); assay: cell_activity
[1] = molecular target: p53as (alternatively spliced p53) (Mus musculus) (UniProt P02340); assay: cell_activity
[2] = CAT reporter, human Saos-2 cells
[3] = luciferase reporter, mouse (10)1 cells

PG13 CAT reporter, 13 repeats of p53-binding site
activity (p53 (wild type); [2]): 14 fold
activity [1, 2]: 9 fold

WAF-1 promoter (WWP-1 luciferase)
activity (p53 (wild type); [3]): 15 fold
activity [1, 3]: 14 fold
